The labels stand for the following.
B1: Luk41 (designed binder)
chain: LPAPKNLVVSRVTEDSARLSWTAPDAAFDSFLIQYQESEKVGEAIVLTVPGSERSYDLTGLKPGTEYTVSIYGVSEVPYSEYWFSNPLSAIFTT
notes: not shown: C-terminal poly-histidine tag
B2: Luk42 (designed binder)
chain: LPAPKNLVVSRVTEDSARLSWTAPDAAFDSFLIQYQESEKVGEAIVLTVPGSERSYDLTGLKPGTEYTVSIYGVVWGYRLTTEHSNPLSAIFTT
notes: as for B1
B3: Luk56 (designed binder)
chain: LPAPKNLVVSRVTEDSARLSWTAPDAAFDSFYIQYIELEIGEAIVLTVPGSERSYDLTGLKPGTEYGVFISGVKGGWNSYPLSAIFTT
notes: as for B1
B4: Luk32 (designed binder)
chain: LPAPKNLVVSRVTEDSARLSWYHENAYLLFDSFLIQYQESEKVGEAIVLTVPGSERSYDLTGLKPGTEYTVSIYGVVYDLTPEKRSSNPLSAIFTT
notes: as for B1
B5: Luk60 (designed binder)
chain: LPAPKNLVVSRVTEDSARLSWTAPDAAFDSFDIQYWEWWPFGEAIVLTVPGSERSYDLTGLKPGTEYGVIILGVKGGFRSTPLSAIFTT
notes: as for B1
B6: Luk54 (designed binder)
chain: LPAPKNLVVSRVTEDSARLSWTAPDAVFDSFRIEYSEWWPIGEAIVLTVPGSERSYDLTGLKPGTEYGVVIAGVKGGGYSVPLSAIFTT
notes: as for B1
B7: Luk57 (designed binder)
chain: LPAPKNLVVSRVTEDSARLSWTAPDAAFNSFYIEYFEWFPAGEAIVLTVPGSERSYDLTGLKPGTEYAVIIHGVKGGQRSTPLSAIFTT
notes: as for B1
B8: Luk28 (designed binder)
chain: LPAPKNLVVSRVTEDSARLSWTAPDAAFDSFAIQYWEWWPPGEAIVLTVPGSERSYDLTGLKPGTEYGVIILGVKGGWYSNPLSAIFTT
notes: as for B1
B9: Luk48 (designed binder)
chain: LPAPKNLVVSRVTEDSARLSWTAPDAAFDSFHIEYGEWWPTGEAIVLTVPGSERSYDLTGLKPGTEYGVLIVGVKGGFRSSPLSAIFTT
notes: as for B1
B10: Luk50 (designed binder)
chain: LPAPKNLVVSRVTEDSARLSWTAPDAAFDSFVIPYSEWWPVGEAIVLTVPGSERSYDLTGLKPGTEYGVYIVGVKGGTWSAPLSAIFTT
notes: as for B1
B11: Luk38 (designed binder)
chain: LPAPKNLVVSRVTEDSARLSWTAPDAAFDSFLIQYQESEKVGEAIVLTVPGSERSYDLTGLKPGTEYTVSIYGVELIYHGWLDFVFSNPLSAIFTT
notes: also called anti-LukE FN3 domain Luk38; not shown: C-terminal poly-histidine tag
B12: Luk39 (designed binder)
chain: LPAPKNLVVSRVTEDSARLSWTAPDAAFDSFLIQYQESEKVGEAIVLTVPGSERSYDLTGLKPGTEYTVSIYGVRVFYFSVEPTWFSNPLSAIFTT
notes: as for B1
B13: Luk26 (designed binder)
chain: LPAPKNLVVSRVTEDSARLSWTAPDAAFDSFHIEYAEPWVWGEAIVLTVPGSERSYDLTGLKPGTEYVVFIGGVKGGHNSTPLSAIFTT
notes: also called anti-LukE FN3 domain Luk26; not shown: C-terminal poly-histidine tag
B14: Luk30 (designed binder)
chain: LPAPKNLVVSRVTEDSARLSWAFNWNYFAFDSFLIQYQESEKVGEAIVLTVPGSERSYDLTGLKPGTEYTVSIYGVVALNTGNKKSNPLSAIFTT
notes: as for B1
B15: Luk58 (designed binder)
chain: LPAPKNLVVSRVTEDSARLSWTAPDAAFDSFDIEYDESAHFGEAIVLTVPGSERSYDLTGLKPGTEYIVFIYGVKGGYASIPLSAIFTT
notes: as for B1
B16: Luk46 (designed binder)
chain: LPAPKNLVVSRVTEDSARLSWTAPDAAFDSFWIHYEESTWAGEAIVLTVPGSERSYDLTGLKPGTEYGVVIVGVKGGLKSHPLSAIFTT
notes: as for B1
B17: Luk37 (designed binder)
chain: LPAPKNLVVSRVTEDSARLSWTAPDAAFDSFLIQYQESEKVGEAIVLTVPGSERSYDLTGLKPGTEYTVSIYGVVGWPLFIQSNPLSAIFTT
notes: as for B1
B18: Luk31 (designed binder)
chain: LPAPNNLVVSRVTEDSARLSWDWDKYYTNRFDSFLIQYQESEKVGEAIVLTVPGSERSYDLTGLKPGTEYTVSIYGVLVRDYIRAAEWYSNPLSAIFTT
notes: as for B1
B19: Luk47 (designed binder)
chain: LPAPKNLVVSRVTEDSARLSWTAPDAAFDSFGIQYFETTESGEAIVLTVPGSERSYDLTGLKPGTEYVVFISGVKGGPLSWPLSAIFTT
notes: as for B1
B20: Luk59 (designed binder)
chain: LPAPKNLVVSRVTEDSARLSWTAPDAAFDSFDISYNEFAWSGEAIVLTVPGSERSYDLTGLKPGTEYVVYIHGVKGGPTSYPLSAIFTT
notes: as for B1
B21: Luk52 (designed binder)
chain: LPAPKNLVVSRVTEDSARLSWTAPDAAFDSFWIQYGEAQEFGEAIVLTVPGSERSYDLTGLKPGTEYIVFITGVKGGNKSYPLSAIFTT
notes: as for B1
B22: Luk53 (designed binder)
chain: LPAPKNLVVSRVTEDSARLSWTAPDAAFDSFTIQYFEAEANGEAIVLTVPGSERSYDLTGLKPGTEYLVFIVGVKGGHSSLPLSAIFTT
notes: as for B1
B23: Luk55 (designed binder)
chain: LPAPKNLVVSRVTEDSARLSWTAPDAAFDSFWIQYFESAGEGEAIVLTVPGSERSYDLTGLKPGTEYLVFIVGVKGGVPSYPLSAIFTT
notes: as for B1
B24: Luk51 (designed binder)
chain: LPAPKNLVVSRVTEDSARLSWTAPDAAFDSFQIHYFESEPGGEAIVLTVPGSERSYDLTGLKPGTEYVVFIIGVKGGWSSLPLSAIFTT
notes: as for B1
B25: Luk29 (designed binder)
chain: LPAPKNLVVSRVTEDSARLSWDEQFVSNFDSFLIQYQESEKVGEAIVLTVPGSERSYDLTGLKPGTEYTVSIYGVFVPWDGFSEINYSNPLSAIFTT
notes: as for B1
B26: Luk43 (designed binder)
chain: LPAPKNLVVSRVTEDSARLSWTAPDAAFDSFLIQYQESEKVGEAIVLTVPGSERSYDLTGLKPGTEYTVSIYGVNSFGRPTLNLFSNPLSAIFTT
notes: as for B1
B27: Luk40 (designed binder)
chain: LPAPKNLVVSRVTEDSARLSWTAPDAAFDSFLIQYQESEKVGEAIVLTVPGSERSYDLTGLKPGTEYTVSIYGVSYAGEPLLWIYSNPLSAIFTT
notes: as for B1
B28: Luk45 (designed binder)
chain: LPAPKNLVVSRVTEDSARLSWTAPDAAFDSFLIQYQESEKVGEAIVLTVPGSERSYDLTGLKPGTEYTVSIYGVAWLTNAYEWEFSNPLSAIFTT
notes: as for B1
B29: Luk44 (designed binder)
chain: LPAPKNLVVSRVTEDSARLSWTAPDAAFDSFLIQYQESEKVGEAIVLTVPGSERSYDLTGLKPGTEYTVSIYGVEWLQYYGETLFSNPLSAIFTT
notes: as for B1
B30: Luk33 (designed binder)
chain: LPAPKNLVVSRVTEDSARLSWTAPDAAFDSFLIQYQESEKVGEAIVLTVPGSERSYDLTGLKPGTEYTVSIYGVAFIPDEIEFSNPLSAIFTT
notes: as for B1
B31: Luk36 (designed binder)
chain: LPAPKNLVVSRVTEDSARLSWTAPDAAFDSFLIQYQESEKVGEAIVLTVPGSERSYDLTGLKPGTEYTVSIYGVADVPDEYEFSNPLSAIFTT
notes: as for B1
B32: Luk35 (designed binder)
chain: LPAPKNLVVSRVTEDSARLSWTAPDAAFDSFLIQYQESEKVGEAIVLTVPGSERSYDLTGLKPGTEYTVSIYGVAHIPWEFEWSKPLSAIFTT
notes: as for B1
B33: Luk34 (designed binder)
chain: LPAPKNLVVSRVTEDSARLSWTAPDAAFDSFLIQYQESEKVGEAIVLTVPGSERSYDLTGPKPGTEYTVSIYGVVVVPHEFEFSNPLSAIFTT
notes: as for B1
B34: Luk49 (designed binder)
chain: LPAPKNLVVSRVTEDSARLSWTAPDAAFDSFAIVYAEHWPAGEAIVLTVPGSERSYDLTGLKPGTEYNVTIPGVKGGKYSDPLSAIFTT
notes: as for B1
B35: Luk27 (designed binder)
chain: LPAPKNLVVSRVTEDSARLSWTAPDAAFDSFPIVYQEWQFYGEAIVLTVPGSERSYDLTGLKPGTEYLVDIYGVKGGSWSYPLSAIFTT
notes: also called anti-LukE FN3 domain Luk27; not shown: C-terminal poly-histidine tag

The assay deals with T1, LukE (S. aureus, UniProt Q2FXB0 24-306).
T1 construct: also called leukotoxin E
Briefly: ELISA after cis-display panning. Background: ELISA stands for enzyme-linked immunosorbent assay.
B1: the binding result is listed as “binds”.
For B2 the value was “binds”; for B3, “binds”.
For B4 the value was “binds”.
As to B5, the binding result is given as “binds”.
Turning to B6, the binding result is “binds”.
The same measure for B7: “binds”; for B8: “binds”.
For B9 the value was “binds”.
With B10, the binding result is “binds”.
B11: the binding result is “binds”.
The same measure for B12: “binds”; for B13: “binds”; for B14: “binds”.
For B15 the value was “binds”; for B16, “binds”; for B17, “binds”.
For B18 the value was “binds”.
As to B19, the binding result is “binds”.
Regarding B20, the binding result is recorded as “binds”.
The same measure for B21: “binds”; for B22: “binds”; for B23: “binds”.
Regarding B24, the binding result is recorded as “binds”.
For B25 the value was “binds”; for B26, “binds”.
The same measure for B27: “binds”; for B28: “binds”; for B29: “binds”.
As to B30, the binding result is on record as “binds”.
The same measure for B31: “binds”.
The same measure for B32: “binds”; for B33: “binds”.
For B34 the value was “binds”; for B35, “binds”.
